Where no end group is shown, it is not given here.
Assays:
[1] = target: human DPF3b tandem PHD finger (residues 261–372) (human, UniProt Q92784-1 261-372); assay: NMR solution structure
[2] = target: DPF3b PHD12 D263A (human, UniProt Q92784-1 261-372, D263A); assay: ITC
[3] = target: DPF3b PHD12 F264A (human, UniProt Q92784-1 261-372, F264A); assay: ITC
[4] = target: DPF3b PHD12 with Ala mutation of Glu315 (human, UniProt Q92784-1 261-372, Ala mutation of Glu315); assay: ITC
[5] = target: T1, DPF3b PHD12 with Ala mutation of Asp335 (human, UniProt Q92784-1 261-372, Ala mutation of Asp335); assay: ITC
T1 sequence (looked up): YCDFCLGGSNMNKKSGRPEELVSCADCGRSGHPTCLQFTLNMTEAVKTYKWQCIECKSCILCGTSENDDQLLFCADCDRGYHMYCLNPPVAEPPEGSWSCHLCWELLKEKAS

## GLGKGGAK(Ac)RHRKVLR (peptide, UniProt P62805 10-24, looked up) [histone H4K16ac peptide (residues 9–23)]
[1]
  binding result: binds

## ARTKQTARKSTGGKAPRK (peptide, UniProt P68431 2-19, looked up) [unmodified histone H3 peptide (residues 1–18)]
[2]
  binding result: binds
[3]
  binding result: binds

## ARTKQTARKSTGGK(Ac)APRK (peptide, UniProt P68431 2-19, looked up) [histone H3 peptide acetylated at lysine 14 (residues 1–18)]
[4]
  binding result: binds
[5]
  binding result: binds

— paper PMC2901902 (Nature, 2010)
